# Test results taken from IntAct's records for PubMed 11779505.
# B1: Mothers against decapentaplegic homolog 4 (Homo sapiens), Q13485 (parent)
# chain: MDNMSITNTPTSNDACLSIVHSLMCHRQGGESETFAKRAIESLVKKLKEKKDELDSLITAITTNGAHPSKCVTIQRTLDGRLQVAGRKGFPHVIYARLWRWPDLHKNELKHVKYCQYAFDLKCDSVCVNPYHYERVVSPGIDLSGLTLQSNAPSSMMVKDEYVHDFEGQPSLSTEGHSIQTIQHPPSNRASTETYSTPALLAPSESNATSTANFPNIPVASTSQPASILGGSHSEGLLQIASGPQPGQQQNGFTGQPATYHHNSTTTWTGSRTAPYTPNLPHHQNGHLQHHPPMPPHPGHYWPVHNELAFQPPISNHPAPEYWCSIAYFEMDVQVGETFKVPSSCPIVTVDGYVDPSGGDRFCLGQLSNVHRTEAIERARLHIGKGVQLECKGEGDVWVRCLSDHAVFVQSYYLDREAGRAPGDAVHKIYPSAYIKVFDLRQCHRQMQQQAATAQAAAAAQAAAVAGNIPGPGSVGGIAPAISLSAAAGIGVDDLRRLCILRMSFVKGWGPDYPRQSIKETPCWIEIHLHRALQLLDEVLHTMPIADPQPLD
# Variants of: B1
# Settings: with smad1_human SMAD1, Q15797
# Chain of smad1_human SMAD1, Q15797 (Q15797 whole entry): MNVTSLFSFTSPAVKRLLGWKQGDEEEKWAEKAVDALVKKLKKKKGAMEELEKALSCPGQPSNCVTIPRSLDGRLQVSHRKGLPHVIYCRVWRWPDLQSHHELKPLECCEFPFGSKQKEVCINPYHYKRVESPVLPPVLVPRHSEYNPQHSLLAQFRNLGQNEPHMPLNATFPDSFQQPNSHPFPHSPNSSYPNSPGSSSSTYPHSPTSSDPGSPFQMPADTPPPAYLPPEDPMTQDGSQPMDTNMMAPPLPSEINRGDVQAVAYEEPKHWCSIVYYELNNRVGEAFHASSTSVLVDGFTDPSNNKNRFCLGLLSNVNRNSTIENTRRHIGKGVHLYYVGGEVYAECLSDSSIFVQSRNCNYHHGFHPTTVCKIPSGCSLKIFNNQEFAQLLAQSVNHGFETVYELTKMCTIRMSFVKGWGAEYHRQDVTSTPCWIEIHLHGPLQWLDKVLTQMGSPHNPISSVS
row,Variant,effect of a mutation on the interaction
1,V426S,decreasing interaction strength
2,K507S,disrupting interaction strength
3,R515S,disrupting interaction strength
4,D351H,disrupting interaction strength
5,D537E,decreasing interaction strength
